The text below walks through data of PMC8352940 (Nature Communications, 2021).

Residue numbers refer to the chain shown, from its start.

In the experiment the target is SARS-CoV-2 RBD-Fc fusion protein (SARS-CoV-2, UniProt P0DTC2). The experiment is described as follows: ELISA. Conditions: both partners purified.

B1: nCoVmab1 (antibody, V domains shown)
VH: QVQLVESGGGLVQPGGSLRLSCAASGFTVSSNYMSWVRQAPGKGLEWVSVIYSGGSTYYADSVKGRFTISRDNSKNTLYLQMNSLRAEDTAVYYCARGDGSDDYYYGMDVWGQGTTVTVSS
VL: QSVVTQPPSVSGAQGQRVFISCTGNGANIGMGYDVHWYQQLPGRAPKLLIFGNTNRPSGVPDRFSASRSGTSASLAITGLQTADEADYYCQSYDGNLRASVFGGGTKLTVL
notes: also called nCoVFab1 in IgG1 format; source: 293F cells, purified (Protein A resin)
Regarding B1, the “fold change in EC50 compared to wild type” value was 1 fold.

B2: nCoVmab2 (antibody, V domains shown)
VH: B1 VH with Q1E, E6Q, L11V, G16R
VL: QAVLTQPSSVSGAPGQRVTISCTGSSSNVGAGYDVHWYQQLPGTAPKLLIYGNSNRPSGVPDRFSGSKSGTSASLAITGLQAEDEADYYCQSYDSSLSGSVFGGGTKLTVL
notes: also called nCoVFab2 in IgG1 format; source: 293F cells, purified (Protein A resin)
B2: the “fold change in EC50 compared to wild type” value turned out to be 1 fold.
